Legend:
Assay in all cases: holdup assay
Parameters in all cases: key: below the threshold = too weak to quantify, mostly under pKd 3.1 to 4
APBA1_1, Q02410 = biological target: T1, APBA1_1, Q02410
T1 sequence (Q02410 651-752, limits assumed, looked up): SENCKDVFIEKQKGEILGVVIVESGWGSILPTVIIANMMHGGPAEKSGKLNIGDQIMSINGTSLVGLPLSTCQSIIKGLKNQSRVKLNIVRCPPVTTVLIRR

ARHGEF11, O15085 = biological target: T2, ARHGEF11, O15085
T2 sequence (O15085 42-136, limits assumed, looked up): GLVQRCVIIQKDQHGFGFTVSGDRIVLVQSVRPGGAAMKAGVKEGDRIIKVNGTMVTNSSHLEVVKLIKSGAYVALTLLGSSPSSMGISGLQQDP

DLG3_2, Q92796 = biological target: T3, DLG3_2, Q92796
T3 sequence (Q92796 221-321, limits assumed, looked up): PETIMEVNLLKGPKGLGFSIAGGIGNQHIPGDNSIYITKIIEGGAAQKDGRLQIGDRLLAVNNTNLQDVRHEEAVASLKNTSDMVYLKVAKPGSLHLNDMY

DLG4_2, P78352 = biological target: DLG4_2, P78352
Sequence of DLG4_2, P78352 (P78352 155-259): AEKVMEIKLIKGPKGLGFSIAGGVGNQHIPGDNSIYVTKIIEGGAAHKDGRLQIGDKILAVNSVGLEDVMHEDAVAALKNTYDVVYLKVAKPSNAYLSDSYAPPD

FRMPD1, Q5SYB0 = biological target: T4, FRMPD1, Q5SYB0
T4 sequence (Q5SYB0 52-145, limits assumed, looked up): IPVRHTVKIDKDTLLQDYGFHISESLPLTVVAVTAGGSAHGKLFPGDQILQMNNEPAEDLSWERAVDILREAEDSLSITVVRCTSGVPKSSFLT

FRMPD2_1, Q68DX3 = biological target: FRMPD2_1, Q68DX3
Sequence of FRMPD2_1, Q68DX3 (Q68DX3 770-861): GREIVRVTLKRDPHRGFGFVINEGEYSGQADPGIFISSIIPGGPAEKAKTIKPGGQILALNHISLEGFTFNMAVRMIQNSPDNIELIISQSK

FRMPD2_3, Q68DX3 = biological target: FRMPD2_3, Q68DX3
Sequence of FRMPD2_3, Q68DX3 (Q68DX3 1073-1166): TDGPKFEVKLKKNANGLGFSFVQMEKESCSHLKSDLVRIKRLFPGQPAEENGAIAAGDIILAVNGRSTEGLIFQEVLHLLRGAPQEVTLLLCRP

GIPC2, Q8TF65 = biological target: GIPC2, Q8TF65
Sequence of GIPC2, Q8TF65 (Q8TF65 112-203): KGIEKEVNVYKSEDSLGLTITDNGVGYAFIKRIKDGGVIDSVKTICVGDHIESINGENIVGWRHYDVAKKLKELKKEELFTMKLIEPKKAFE

GOPC, Q9HD26 = biological target: GOPC, Q9HD26
GORASP1, Q9BQQ3 = biological target: GORASP1, Q9BQQ3
Sequence of GORASP1, Q9BQQ3 (Q9BQQ3 1-208): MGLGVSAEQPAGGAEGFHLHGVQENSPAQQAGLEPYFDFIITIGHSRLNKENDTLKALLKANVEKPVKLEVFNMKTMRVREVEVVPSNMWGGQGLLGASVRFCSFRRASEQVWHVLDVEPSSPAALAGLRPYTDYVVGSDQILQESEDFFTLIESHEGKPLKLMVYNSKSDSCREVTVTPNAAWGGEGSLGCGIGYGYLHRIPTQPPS

HTRA3, P83110 = biological target: T5, HTRA3, P83110
T5 sequence (P83110 354-453, limits assumed, looked up): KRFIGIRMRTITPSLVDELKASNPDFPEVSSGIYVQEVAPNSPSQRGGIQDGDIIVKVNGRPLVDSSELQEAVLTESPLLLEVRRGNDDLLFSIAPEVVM

Inadl_1, Q8NI35 = biological target: Inadl_1, Q8NI35
Sequence of Inadl_1, Q8NI35 (Q8NI35 113-229): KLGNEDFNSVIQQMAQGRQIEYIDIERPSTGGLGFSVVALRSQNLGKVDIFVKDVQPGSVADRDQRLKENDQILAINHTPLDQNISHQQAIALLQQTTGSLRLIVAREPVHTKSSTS

Inadl_10, Q8NI35 = biological target: Inadl_10, Q8NI35
Sequence of Inadl_10, Q8NI35 (Q8NI35 1673-1763): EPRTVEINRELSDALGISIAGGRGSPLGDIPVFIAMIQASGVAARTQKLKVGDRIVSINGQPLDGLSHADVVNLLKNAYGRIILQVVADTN

Inadl_4, Q8NI35 = biological target: Inadl_4, Q8NI35
Sequence of Inadl_4, Q8NI35 (Q8NI35 547-651): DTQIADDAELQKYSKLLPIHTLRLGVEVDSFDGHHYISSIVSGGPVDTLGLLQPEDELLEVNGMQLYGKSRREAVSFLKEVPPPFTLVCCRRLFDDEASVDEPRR

Inadl_6, Q8NI35 = biological target: Inadl_6, Q8NI35
Sequence of Inadl_6, Q8NI35 (Q8NI35 1058-1167): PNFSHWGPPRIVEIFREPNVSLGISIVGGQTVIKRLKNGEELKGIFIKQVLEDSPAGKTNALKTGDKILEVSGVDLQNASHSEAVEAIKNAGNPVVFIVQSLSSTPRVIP

Inadl_8, Q8NI35 = biological target: Inadl_8, Q8NI35
Sequence of Inadl_8, Q8NI35 (Q8NI35 1425-1530): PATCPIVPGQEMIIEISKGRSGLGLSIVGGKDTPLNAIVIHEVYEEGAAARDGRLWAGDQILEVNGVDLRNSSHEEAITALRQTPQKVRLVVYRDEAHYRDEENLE

LIN7B, Q9HAP6 = biological target: T6, LIN7B, Q9HAP6
T6 sequence (Q9HAP6 88-185, limits assumed, looked up): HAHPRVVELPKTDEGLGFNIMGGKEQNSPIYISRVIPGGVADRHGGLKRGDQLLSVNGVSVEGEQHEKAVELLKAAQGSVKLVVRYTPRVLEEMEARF

LNX1_2, Q8TBB1 = biological target: LNX1_2, Q8TBB1
Sequence of LNX1_2, Q8TBB1 (Q8TBB1 371-470): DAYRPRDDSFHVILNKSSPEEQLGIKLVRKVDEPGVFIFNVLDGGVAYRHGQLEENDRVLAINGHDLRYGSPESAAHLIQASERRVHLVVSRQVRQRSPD

LNX1_3, Q8TBB1 = biological target: LNX1_3, Q8TBB1
Sequence of LNX1_3, Q8TBB1 (Q8TBB1 500-596): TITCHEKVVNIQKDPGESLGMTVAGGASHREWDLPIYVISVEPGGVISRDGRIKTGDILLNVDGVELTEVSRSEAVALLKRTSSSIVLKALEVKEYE

MAGI1_2, Q96QZ7 = biological target: MAGI1_2, Q96QZ7
Sequence of MAGI1_2, Q96QZ7 (Q96QZ7 456-580): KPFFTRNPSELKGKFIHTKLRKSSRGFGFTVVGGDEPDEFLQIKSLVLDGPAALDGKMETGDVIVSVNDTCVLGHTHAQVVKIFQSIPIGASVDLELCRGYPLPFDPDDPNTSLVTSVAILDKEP

MAGI2_3, Q86UL8 = biological target: MAGI2_3, Q86UL8
Sequence of MAGI2_3, Q86UL8 (Q86UL8 600-682): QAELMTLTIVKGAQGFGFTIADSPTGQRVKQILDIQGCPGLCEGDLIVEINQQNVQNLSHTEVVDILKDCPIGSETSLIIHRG

MAGI3_2, Q5TCQ9 = biological target: MAGI3_2, Q5TCQ9
Sequence of MAGI3_2, Q5TCQ9 (Q5TCQ9 398-503): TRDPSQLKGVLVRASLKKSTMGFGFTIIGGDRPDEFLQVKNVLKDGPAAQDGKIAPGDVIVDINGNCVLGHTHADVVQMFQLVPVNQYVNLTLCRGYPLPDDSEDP

MAST2, Q6P0Q8 = biological target: MAST2, Q6P0Q8
Sequence of MAST2, Q6P0Q8 (Q6P0Q8 1099-1202): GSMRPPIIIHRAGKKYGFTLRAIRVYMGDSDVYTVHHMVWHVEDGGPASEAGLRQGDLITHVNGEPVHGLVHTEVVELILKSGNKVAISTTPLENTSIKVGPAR

NHERF3_3, Q5T2W1 = biological target: T7, NHERF3_3, Q5T2W1
T7 sequence (Q5T2W1 238-333, limits assumed, looked up): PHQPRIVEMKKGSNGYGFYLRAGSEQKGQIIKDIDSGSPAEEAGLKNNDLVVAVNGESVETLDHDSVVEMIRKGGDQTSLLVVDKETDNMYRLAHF

NHERF4_4, Q86UT5 = biological target: NHERF4_4, Q86UT5
Sequence of NHERF4_4, Q86UT5 (Q86UT5 464-550): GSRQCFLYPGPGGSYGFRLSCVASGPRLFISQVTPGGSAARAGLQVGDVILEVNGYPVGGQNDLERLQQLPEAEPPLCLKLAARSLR

PARD3_3, Q8TEW0 = biological target: PARD3_3, Q8TEW0
Sequence of PARD3_3, Q8TEW0 (Q8TEW0 582-685): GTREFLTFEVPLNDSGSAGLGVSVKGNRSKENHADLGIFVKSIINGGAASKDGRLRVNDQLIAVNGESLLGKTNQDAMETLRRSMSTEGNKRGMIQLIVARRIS

RHPN1, Q8TCX5 = biological target: T8, RHPN1, Q8TCX5
T8 sequence (Q8TCX5 508-602, limits assumed, looked up): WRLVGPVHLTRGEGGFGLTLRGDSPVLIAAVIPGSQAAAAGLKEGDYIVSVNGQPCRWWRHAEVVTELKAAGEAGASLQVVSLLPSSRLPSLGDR

SNTA1, Q13424 = biological target: T9, SNTA1, Q13424
T9 sequence (Q13424 82-180, limits assumed, looked up): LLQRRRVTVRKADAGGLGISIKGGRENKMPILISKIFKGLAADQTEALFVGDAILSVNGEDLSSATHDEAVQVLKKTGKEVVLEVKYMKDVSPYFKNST

[1] = plain residues with an end cap or a label only (N-terminal biotin on a linker: (peg)3)
[2] = plain residues with an end cap or a label only (N-terminal biotin on a linker: ado-ado)

Measured: pKd

NLNSSEGVPDLLV [SARS-CoV-E, P59637]
3.96: Inadl_8, Q8NI35; [1]
4.27: PARD3_3, Q8TEW0; [1]
below the threshold: APBA1_1, Q02410; [1] | ARHGEF11, O15085; [1] | DLG3_2, Q92796; [1] | DLG4_2, P78352; [1] | FRMPD1, Q5SYB0; [1] | FRMPD2_1, Q68DX3; [1] | FRMPD2_3, Q68DX3; [1] | GIPC2, Q8TF65; [1] | GOPC, Q9HD26; [1] | GORASP1, Q9BQQ3; [1] | HTRA3, P83110; [1] | Inadl_1, Q8NI35; [1] | Inadl_10, Q8NI35; [1] | Inadl_4, Q8NI35; [1] | Inadl_6, Q8NI35; [1] | LIN7B, Q9HAP6; [1] | LNX1_3, Q8TBB1; [1] | MAGI1_2, Q96QZ7; [1] | MAGI2_3, Q86UL8; [1] | MAGI3_2, Q5TCQ9; [1] | MAST2, Q6P0Q8; [1] | NHERF3_3, Q5T2W1; [1] | NHERF4_4, Q86UT5; [1] | RHPN1, Q8TCX5; [1] | SNTA1, Q13424; [1]
4.06: LNX1_2, Q8TBB1; [1]

VYPNAKVELV [PDLIM4_iso2, P50479;P50479-1]
4.48: GORASP1, Q9BQQ3; [2]
below the threshold: APBA1_1, Q02410; [2] | ARHGEF11, O15085; [2] | DLG3_2, Q92796; [2] | DLG4_2, P78352; [2] | FRMPD1, Q5SYB0; [2] | FRMPD2_1, Q68DX3; [2] | FRMPD2_3, Q68DX3; [2] | GIPC2, Q8TF65; [2] | GOPC, Q9HD26; [2] | Inadl_1, Q8NI35; [2] | Inadl_10, Q8NI35; [2] | Inadl_4, Q8NI35; [2] | Inadl_6, Q8NI35; [2] | Inadl_8, Q8NI35; [2] | LIN7B, Q9HAP6; [2] | LNX1_3, Q8TBB1; [2] | MAGI1_2, Q96QZ7; [2] | MAGI2_3, Q86UL8; [2] | MAGI3_2, Q5TCQ9; [2] | MAST2, Q6P0Q8; [2] | NHERF3_3, Q5T2W1; [2] | NHERF4_4, Q86UT5; [2] | PARD3_3, Q8TEW0; [2] | RHPN1, Q8TCX5; [2] | SNTA1, Q13424; [2]

PKRSFIESNV [TANC1, Q9C0D5]
3.83: GIPC2, Q8TF65; [2] | NHERF4_4, Q86UT5; [2]
3.55: ARHGEF11, O15085; [2]
below the threshold: APBA1_1, Q02410; [2] | FRMPD1, Q5SYB0; [2] | FRMPD2_1, Q68DX3; [2] | FRMPD2_3, Q68DX3; [2] | GORASP1, Q9BQQ3; [2] | HTRA3, P83110; [2] | Inadl_1, Q8NI35; [2] | Inadl_10, Q8NI35; [2] | Inadl_4, Q8NI35; [2] | Inadl_6, Q8NI35; [2] | LIN7B, Q9HAP6; [2] | LNX1_2, Q8TBB1; [2] | LNX1_3, Q8TBB1; [2] | NHERF3_3, Q5T2W1; [2] | PARD3_3, Q8TEW0; [2]
4.37: MAGI1_2, Q96QZ7; [2]
3.85: GOPC, Q9HD26; [2]
5.04: DLG4_2, P78352; [2]
4.77: DLG3_2, Q92796; [2] | SNTA1, Q13424; [2]
3.98: MAGI2_3, Q86UL8; [2]
5.2: MAST2, Q6P0Q8; [2]
4.38: RHPN1, Q8TCX5; [2]
5.24: MAGI3_2, Q5TCQ9; [2]
4.15: Inadl_8, Q8NI35; [2]

QKNRKAQEDL [CES3, Q6UWW8]
below the threshold: APBA1_1, Q02410; [2] | ARHGEF11, O15085; [2] | DLG4_2, P78352; [2] | FRMPD1, Q5SYB0; [2] | FRMPD2_1, Q68DX3; [2] | FRMPD2_3, Q68DX3; [2] | GIPC2, Q8TF65; [2] | GOPC, Q9HD26; [2] | GORASP1, Q9BQQ3; [2] | HTRA3, P83110; [2] | Inadl_1, Q8NI35; [2] | Inadl_10, Q8NI35; [2] | Inadl_4, Q8NI35; [2] | Inadl_6, Q8NI35; [2] | Inadl_8, Q8NI35; [2] | LNX1_2, Q8TBB1; [2] | LNX1_3, Q8TBB1; [2] | MAGI1_2, Q96QZ7; [2] | MAGI3_2, Q5TCQ9; [2] | MAST2, Q6P0Q8; [2] | NHERF3_3, Q5T2W1; [2] | NHERF4_4, Q86UT5; [2] | PARD3_3, Q8TEW0; [2] | RHPN1, Q8TCX5; [2] | SNTA1, Q13424; [2]
3.83: MAGI2_3, Q86UL8; [2]
3.78: LIN7B, Q9HAP6; [2]
4.21: DLG3_2, Q92796; [2]
